Results from the supplement of paper PMC5998384.

Key:
HeLa Kyoto [1] = assay: melting temperature (median over replicates), in situ; higher = more thermally stable
HeLa Kyoto [2] = assay: solubility in G1/S (NP-40 vs SDS abundance) (log2 ratio); higher = more soluble; conditions: cell cycle stage: G1/S
HeLa Kyoto [3] = assay: solubility change mitosis vs G1/S (difference of NP-40 vs SDS log2 ratios) (log2 ratio difference); higher = more soluble in mitosis
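Wherever melting temperature (median over replicates), in situ is given: HeLa Kyoto cells synchronized by double thymidine or nocodazole block, proteins quantified by TMT10plex mass spectrometry, three independent biological replicates.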
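Wherever solubility change mitosis vs G1/S (difference of NP-40 vs SDS log2 ratios) is given: synchronized HeLa Kyoto cells (double thymidine block for G1/S, nocodazole release for mitosis), protein amounts in NP-40 versus SDS lysates quantified by mass spectrometry, three biological replicates.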
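Wherever solubility in G1/S (NP-40 vs SDS abundance) is given: HeLa Kyoto cells arrested at G1/S by double thymidine block, proteins quantified by TMT10plex mass spectrometry in mild NP-40 versus SDS extracts, three biological replicates.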

Sequence	melting temperature (HeLa Kyoto [1]; cell cycle stage: G1/S)	melting temperature (HeLa Kyoto [1]; cell cycle stage: mitosis)	solubility in G1/S (log2) (HeLa Kyoto [2])	solubility change mitosis (log2) (HeLa Kyoto [3])
MGKEKTHINIVVIGHVDSGKSTTTGHLIYKCGGIDKRTIEKFEKEAAEMGKGSFKYAWVLDKLKAERERGITIDISLWKFETSKYYVTIIDAPGHRDFIKNMITGTSQADCAVLIVAAGVGEFEAGISKNGQTREHALLAYTLGVKQLIVGVNKMDSTEPPYSQKRYEEIVKEVSTYIKKIGYNPDTVAFVPISGWNGDNMLEPSANMPWFKGWKVTRKDGNASGTTLLEALDCILPPTRPTDKPLRLPLQDVYKIGGIGTVPVGRVETGVLKPGMVVTFAPVNVTTEVKSVEMHHEALSEALPGDNVGFKVKNVSVKDVRRGNVAGDSKNDPPMEAAGFTAQVIILNHPGQISAGYAPVLDCHMAHIACKFAELKEKIDRRSGKKLEDGPKFLKSGDAAIVDMVPGKPMCVESFSDYPPLGRFAVRDMRQTVAVGVIKAVDKKAAGAGKVTKSAQKAQKAK [EEF1A1P5]	52.4 °C	52.4 °C	0.301	-0.0239
MGLGPVFLLLAGIFPFAPPGAAAEPHSLRYNLTVLSWDGSVQSGFLTEVHLDGQPFLRCDRQKCRAKPQGQWAEDVLGNKTWDRETRDLTGNGKDLRMTLAHIKDQKEGLHSLQEIRVCEIHEDNSTRSSQHFYYDGELFLSQNLETKEWTMPQSSRAQTLAMNVRNFLKEDAMKTKTHYHAMHADCLQELRRYLKSGVVLRRTVPPMVNVTRSEASEGNITVTCRASGFYPWNITLSWRQDGVSLSHDTQQWGDVLPDGNGTYQTWVATRICQGEEQRFTCYMEHSGNHSTHPVPSGKVLVLQSHWQTFHVSAVAAAAIFVIIIFYVRCCKKKTSAAEGPELVSLQVLDQHPVGTSDHRDATQLGFQPLMSDLGSTGSTEGA [MICA]	55.9 °C	57.2 °C	-0.128	-0.108
MGLHLRPYRVGLLPDGLLFLLLLLMLLADPALPAGRHPPVVLVPGDLGNQLEAKLDKPTVVHYLCSKKTESYFTIWLNLELLLPVIIDCWIDNIRLVYNKTSRATQFPDGVDVRVPGFGKTFSLEFLDPSKSSVGSYFHTMVESLVGWGYTRGEDVRGAPYDWRRAPNENGPYFLALREMIEEMYQLYGGPVVLVAHSMGNMYTLYFLQRQPQAWKDKYIRAFVSLGAPWGGVAKTLRVLASGDNNRIPVIGPLKIREQQRSAVSTSWLLPYNYTWSPEKVFVQTPTINYTLRDYRKFFQDIGFEDGWLMRQDTEGLVEATMPPGVQLHCLYGTGVPTPDSFYYESFPDRDPKICFGDGDGTVNLKSALQCQAWQSRQEHQVLLQELPGSEHIEMLANATTLAYLKRVLLGP [PLA2G15]	54.7 °C	56.1 °C	0.446	0.0116
MGRKVTVATCALNQWALDFEGNLQRILKSIEIAKNRGARYRLGPELEICGYGCWDHYYESDTLLHSFQVLAALVESPVTQDIICDVGMPVMHRNVRYNCRVIFLNRKILLIRPKMALANEGNYRELRWFTPWSRSRHTEEYFLPRMIQDLTKQETVPFGDAVLVTWDTCIGSEICEELWTPHSPHIDMGLDGVEIITNASGSHQVLRKANTRVDLVTMVTSKNGGIYLLANQKGCDGDRLYYDGCAMIAMNGSVFAQGSQFSLDDVEVLTATLDLEDVRSYRAEISSRNLAASRASPYPRVKVDFALSCHEDLLAPISEPIEWKYHSPEEEISLGPACWLWDFLRRSQQAGFLLPLSGGVDSAATACLIYSMCCQVCEAVRSGNEEVLADVRTIVNQISYTPQDPRDLCGRILTTCYMASKNSSQETCTRARELAQQIGSHHISLNIDPAVKAVMGIFSLVTGKSPLFAAHGGSSRENLALQNVQARIRMVLAYLFAQLSLWSRGVHGGLLVLGSANVDESLLGYLTKYDCSSADINPIGGISKTDLRAFVQFCIQRFQLPALQSILLAPATAELEPLADGQVSQTDEEDMGMTYAELSVYGKLRKVAKMGPYSMFCKLLGMWRHICTPRQVADKVKRFFSKYSMNRHKMTTLTPAYHAENYSPEDNRFDLRPFLYNTSWPWQFRCIENQVLQLERAEPQSLDGVD [NADSYN1]		56.3 °C	0.157	-0.234
MKDPSRSSTSPSIINEDVIINGHSHEDDNPFAEYMWMENEEEFNRQIEEELWEEEFIERCFQEMLEEEEEHEWFIPARDLPQTMDQIQDQFNDLVISDGSSLEDLVVKSNLNPNAKEFVPGVKYGNI [PAIP2]	50.5 °C		0.197	-0.113
MKDRLEQLKAKQLTQDDDTDAVEIAIDNTAFMDEFFSEIEETRLNIDKISEHVEEAKKLYSIILSAPIPEPKTKDDLEQLTTEIKKRANNVRNKLKSMEKHIEEDEVRSSADLRIRKSQHSVLSRKFVEVMTKYNEAQVDFRERSKGRIQRQLEITGKKTTDEELEEMLESGNPAIFTSGIIDSQISKQALSEIEGRHKDIVRLESSIKELHDMFMDIAMLVENQGEMLDNIELNVMHTVDHVEKARDETKKAVKYQSQARKKLIIIIVLVVVLLGILALIIGLSVGLN [STX3]	53.9 °C		0.157	0.0981
MKGLGDSRPRHLSDSLDPPHEPLFAGTDRNPYLLSPTEAFAREARFPGQNTLPGDGLFPLNNQLPPPSSTFPRIHYNSHFEVPEESPFPSHAQATKINRLPANLLDQFEKQLPIHRDGFSTLQFPRGEAKARGESPGRIRHLVHSVQRLFFTKAPSLEGTAGKVGGNGSKKGGMEDGKGRRAKSKERAKAGEPKRRSRSNISGWWSSDDNLDGEAGAFRSSGPASGLMTLGRQAERSQPRYFMHAYNTISGHMLKTTKNNTTELTAPPPPPAPPATCPSLGVGTDTNYVKRGSWSTLTLSHAHEVCQKTSATLDKSLLKSKSCHQGLAYHYLQVPGGGGEWSTTLLSPRETDAAAEGPIPCRRMRSGSYIKAMGDEDSDESGGSPKPSPKTAARRQSYLRATQQSLGEQSNPRRSLDRLDSVDMLLPSKCPSWEEDYTPVSDSLNDSSCISQIFGQASLIPQLFGHEQQVREAELSDQYEAACESACSEAESTAAETLDLPLPSYFRSRSHSYLRAIQAGCSQEEDSVSLQSLSPPPSTGSLSNSRTLPSSSCLVAYKKTPPPVPPRTTSKPFISVTVQSSTESAQDTYLDSQDHKSEVTSQSGLSNSSDSLDSSTRPPSVTRGGVAPAPEAPEPPPKHAALKSEQGTLTSSESHPEAAPKRKLSSIGIQVDCIQPVPKEEPSPATKFQSIGVQVEDDWRSSVPSHSMSSRRDTDSDTQDANDSSCKSSERSLPDCTPHPNSISIDAGPRQAPKIAQIKRNLSYGDNSDPALEASSLPPPDPWLETSSSSPAEPAQPGACRRDGYWFLKLLQAETERLEGWCCQMDKETKENNLSEEVLGKVLSAVGSAQLLMSQKFQQFRGLCEQNLNPDANPRPTAQDLAGFWDLLQLSIEDISMKFDELYHLKANSWQLVETPEKRKEEKKPPPPVPKKPAKSKPAVSRDKASDASDKQRQEARKRLLAAKRAASVRQNSATESADSIEIYVPEAQTRL [DLGAP4]		55.5 °C	0.269	-0.0211
MKIGSGFLSGGGGTGSSGGSGSGGGGSGGGGGGGSSGRRAEMEPTFPQGMVMFNHRLPPVTSFTRPAGSAAPPPQCVLSSSTSAAPAAEPPPPPAPDMTFKKEPAASAAAFPSQRTSWGFLQSLVSIKQEKPADPEEQQSHHHHHHHHYGGLFAGAEERSPGLGGGEGGSHGVIQDLSILHQHVQQQPAQHHRDVLLSSSSRTDDHHGTEEPKQDTNVKKAKRPKPESQGIKAKRKPSASSKPSLVGDGEGAILSPSQKPHICDHCSAAFRSSYHLRRHVLIHTGERPFQCSQCSMGFIQKYLLQRHEKIHSREKPFGCDQCSMKFIQKYHMERHKRTHSGEKPYKCDTCQQYFSRTDRLLKHRRTCGEVIVKGATSAEPGSSNHTNMGNLAVLSQGNTSSSRRKTKSKSIAIENKEQKTGKTNESQISNNINMQSYSVEMPTVSSSGGIIGTGIDELQKRVPKLIFKKGSRKNTDKNYLNFVSPLPDIVGQKSLSGKPSGSLGIVSNNSVETIGLLQSTSGKQGQISSNYDDAMQFSKKRRYLPTASSNSAFSINVGHMVSQQSVIQSAGVSVLDNEAPLSLIDSSALNAEIKSCHDKSGIPDEVLQSILDQYSNKSESQKEDPFNIAEPRVDLHTSGEHSELVQEENLSPGTQTPSNDKASMLQEYSKYLQQAFEKSTNASFTLGHGFQFVSLSSPLHNHTLFPEKQIYTTSPLECGFGQSVTSVLPSSLPKPPFGMLFGSQPGLYLSALDATHQQLTPSQELDDLIDSQKNLETSSAFQSSSQKLTSQKEQKNLESSTGFQIPSQELASQIDPQKDIEPRTTYQIENFAQAFGSQFKSGSRVPMTFITNSNGEVDHRVRTSVSDFSGYTNMMSDVSEPCSTRVKTPTSQSYR [ZNF281]	45.1 °C	47.4 °C	-0.357	0.0949
